Data reported in the RNAGym collection of RNA variant scans (doi:10.7554/elife.90254).

B1: LINE1-full (parent)
chain: UACGUAGGUGGUUUUCCCCUGAUAGUGCUAAGGGGGCCUGGAAGUUUGGACUGGGCAGAGCUCAACACAGCGUGGCAAAGUGGCUGUGGCUAGACUGCCUCUCUGGAUUCCUCGUCACUCAGCAGGGCAUCUCUGAGAGAAAUGCC

Variants of: B1
Assay: self-cleavage, relative activity (ratio to wild type); higher = more cleavage; in vitro, sequencing; the parent is a self-cleaving ribozyme
Variant A107U U109C has a self-cleavage of 1.58. Work on U112C G126A yielded a self-cleavage of 1.64. A107U U115C showed a self-cleavage of 1.55. U109C U132C gave a self-cleavage of 1.03. With U109C U132A the self-cleavage was 1.14. U115G A140G showed a self-cleavage of 2. Work on U115A A140G yielded a self-cleavage of 1.27. Variant U109C A124G has a self-cleavage of 0.78. Variant C111U U115C has a self-cleavage of 1.55. U109C A121C gave a self-cleavage of 0.99. With U109C A121G the self-cleavage was 1.58. With C113U U143C the self-cleavage was 1.05. For U108C C123U, the self-cleavage was 2.22. Variant A107U A141G has a self-cleavage of 1.52. Work on U109C U119A yielded a self-cleavage of 0.7. For U109C U119C, the self-cleavage was 1.61. With U112C G144A the self-cleavage was 1.58. In the case of C110A G139C, the self-cleavage is reported as 1.08. With C110A G139A the self-cleavage was 1.17. With U112C the self-cleavage was 1.36. In the case of U112A, the self-cleavage is reported as 1.43. For U112G, the self-cleavage was 1.28. For U112C A124G, the self-cleavage was 0.64. In the case of U112C A124C, the self-cleavage is reported as 0.77. In the case of U108G U115C, the self-cleavage is reported as 1.58. In the case of U108G G122C, the self-cleavage is reported as 0. With G114U A140G the self-cleavage was 0.91. In the case of U115A A117U, the self-cleavage is reported as 1.82. Variant U112C C128U has a self-cleavage of 1.35. For U115G A129G, the self-cleavage was 1.16. Variant U109A G126A has a self-cleavage of 1.34. With U108C A124C the self-cleavage was 1.57. In the case of U112C C131U, the self-cleavage is reported as 1.87. In the case of U109C A142C, the self-cleavage is reported as 1.45. For U109C A142U, the self-cleavage was 1.49. U109C A142G gave a self-cleavage of 0.77. C113A U132C showed a self-cleavage of 1.44. U115C A138G showed a self-cleavage of 1.79. Work on U109A A124U yielded a self-cleavage of 1.61. With U115C C146A the self-cleavage was 1.82. For U109C U130A, the self-cleavage was 1.24. With U109C U130C the self-cleavage was 1.49. In the case of A107U A117G, the self-cleavage is reported as 1.34. With U115C A124C the self-cleavage was 2.09. For A107G G139U, the self-cleavage was 2.42. Work on A107G G139A yielded a self-cleavage of 1.19. Work on U112A A117G yielded a self-cleavage of 1.82. Variant U112G A136C has a self-cleavage of 0.61. U112G C116A showed a self-cleavage of 1.57. For U115C G122A, the self-cleavage was 1.77. For G114A A117U, the self-cleavage was 1.34. In the case of G114A A117G, the self-cleavage is reported as 1.27. Variant U108C A142G has a self-cleavage of 1.94. With C110A A140G the self-cleavage was 1.44. Variant U115G G125U has a self-cleavage of 0.54. Variant C116U A124U has a self-cleavage of 1.87. For C116U A124C, the self-cleavage was 1.6. For U112G A117U, the self-cleavage was 1.92. C111U A136G showed a self-cleavage of 1.26. With U115G A141G the self-cleavage was 1.25. G114A A121G gave a self-cleavage of 1.32. A117C A129U showed a self-cleavage of 1. Work on C111U A121U yielded a self-cleavage of 1.28. With U112A A129U the self-cleavage was 1.8. U108C U115C gave a self-cleavage of 1.86. Variant U108G U112C has a self-cleavage of 2.58. For C113U A136U, the self-cleavage was 1.75. With C111A A141U the self-cleavage was 1.14. Variant C111A A141G has a self-cleavage of 1.03. U112A U130C showed a self-cleavage of 1.6. G114A G125U gave a self-cleavage of 1.49. Variant U112A U134A has a self-cleavage of 1.09. Work on U112A U134G yielded a self-cleavage of 1.73. U112A U134C showed a self-cleavage of 1.56. U115A A138C showed a self-cleavage of 1.8. Variant A117C has a self-cleavage of 1.75. Work on U108C C120A yielded a self-cleavage of 1.45. U115G U119A gave a self-cleavage of 1.36. With U108A U130A the self-cleavage was 0.38. U109A A117U showed a self-cleavage of 1.51. For U109A A117G, the self-cleavage was 1.42. Variant U112C U143G has a self-cleavage of 1.81. Variant A107U A129G has a self-cleavage of 2.12. For A107U A129U, the self-cleavage was 1.86. For A107G U132A, the self-cleavage was 0.88. With C110A A138G the self-cleavage was 0.95. U115C U130G gave a self-cleavage of 0.66. Work on A117C A124U yielded a self-cleavage of 1.14. A117C A124G showed a self-cleavage of 1.7. Variant U109A A121G has a self-cleavage of 1.82. U108C C145A showed a self-cleavage of 1.47. Work on U108C C145G yielded a self-cleavage of 2.49. With U115G A138G the self-cleavage was 2.15. C110A U119C showed a self-cleavage of 1.51. With U112A A141G the self-cleavage was 1.43. With U108C A140G the self-cleavage was 1.74. U108C C131U gave a self-cleavage of 2.2. In the case of C113U A141G, the self-cleavage is reported as 0.94. Variant U109A A141G has a self-cleavage of 1.76. Variant C113U C128U has a self-cleavage of 1.17. U112A A140U gave a self-cleavage of 1.79. Work on G114A yielded a self-cleavage of 1.17. G114C showed a self-cleavage of 1.63. In the case of G114U, the self-cleavage is reported as 1.4. With A107U C113U the self-cleavage was 0.69. U112C U130A showed a self-cleavage of 1.59. U109A C131A showed a self-cleavage of 1.59. With C110U G127A the self-cleavage was 1.35. C116A A121U gave a self-cleavage of 1.21. U108C A117C showed a self-cleavage of 2.24. Variant U108C A117G has a self-cleavage of 1.62. With A107U G127A the self-cleavage was 0.93. For A107U U130C, the self-cleavage was 2.08. C113A U134C gave a self-cleavage of 0.33. A107G U119A showed a self-cleavage of 1.91. A107G U119G gave a self-cleavage of 0.84. A107G U119C showed a self-cleavage of 1.31. With C111U G137A the self-cleavage was 1.73. Variant U108C G135A has a self-cleavage of 1.6. U109C C123U showed a self-cleavage of 1.22. U115A showed a self-cleavage of 1.36. Variant U115G has a self-cleavage of 1.5. With U115C the self-cleavage was 1.58. Work on C110U U132C yielded a self-cleavage of 1.45. C110U A140G gave a self-cleavage of 1.41. With U108C U130C the self-cleavage was 1.66. With U108C U130G the self-cleavage was 1.02. For U108C G127A, the self-cleavage was 1.64. Variant C110G A129G has a self-cleavage of 1.36. For G114A U115C, the self-cleavage was 1.58. In the case of U109C G114U, the self-cleavage is reported as 1.33. For U112C A142G, the self-cleavage was 1.43. In the case of U112A A136G, the self-cleavage is reported as 1.71. C116G U134C gave a self-cleavage of 0.99. For U115C C145G, the self-cleavage was 1.64. Variant U115A A142G has a self-cleavage of 0.9. With U115A A142U the self-cleavage was 1.38. Work on G114A G127C yielded a self-cleavage of 1.34. Variant G114A G127A has a self-cleavage of 1.74. U112C A141G showed a self-cleavage of 1.57. U108C C110A gave a self-cleavage of 1.49. With C110U G126A the self-cleavage was 1.34. U115A A124U gave a self-cleavage of 1.79. In the case of A107G G137U, the self-cleavage is reported as 2.3. In the case of U112G A142G, the self-cleavage is reported as 1.27. In the case of U108C A138G, the self-cleavage is reported as 1.8. For A107U A138G, the self-cleavage was 1.71. Variant U108C C113A has a self-cleavage of 1.45. Variant U109A A140U has a self-cleavage of 1.22. For C113A A136G, the self-cleavage was 0.91. Variant C116U U134C has a self-cleavage of 1.11. In the case of U115C U119C, the self-cleavage is reported as 2.04. With U108C C146U the self-cleavage was 0.63. With U112A A138G the self-cleavage was 1.57. U112A A138U showed a self-cleavage of 2.19. With U112C A138U the self-cleavage was 1.23. Work on U115A A141G yielded a self-cleavage of 1.5. Work on C116A U119C yielded a self-cleavage of 1.27. In the case of C113U A124G, the self-cleavage is reported as 1.31. Variant U112A U115C has a self-cleavage of 1.3. In the case of G114U A142C, the self-cleavage is reported as 0.95. Work on U115C A142G yielded a self-cleavage of 2.05. U109C U134A showed a self-cleavage of 0.22. Work on U112C A136G yielded a self-cleavage of 1.51. U112C A136U gave a self-cleavage of 1.84. U108A U143C showed a self-cleavage of 1.32. Variant A107U C146U has a self-cleavage of 1.21.
